Experimental data published in publication PMC4517146, “Enzymatic Enantioselective Decarboxylative Protonation of Heteroaryl Malonates” (Chemistry (Weinheim an Der Bergstrasse, Germany), 2015).

How the values were obtained:
Assay in all cases: spectrophotometric decarboxylation kinetics
Assay type in all cases: biochemical, Bordetella bronchiseptica
Settings in all cases: assay conditions in Supporting Information
[1] = substrate: O=C(O)C(O)(C(=O)O)c1cccs1
[2] = substrate: O=C(O)C(O)(C(=O)O)c1cc2ccccc2o1
[3] = substrate: O=C(O)C(O)(C(=O)O)c1ccco1
[4] = substrate: Cc1ccc(C(O)(C(=O)O)C(=O)O)o1
[5] = substrate: O=C(O)C(C(=O)O)c1ccco1
[6] = substrate: O=C(O)C(O)(C(=O)O)c1ccc2sccc2c1
[7] = substrate: O=C(O)C(O)(C(=O)O)c1cccnc1

B1: aryl/alkenyl malonate decarboxylase (AMDase) (Bordetella bronchiseptica) (protein)
chain: MQQASTPTIGMIVPPAAGLVPADGARLYPDLPFIASGLGLGSVTPEGYDAVIESVVDHARRLQKQGAAVVSLMGTSLSFYRGAAFNAALTVAMREATGLPCTTMSTAVLNGLRALGVRRVALATAYIDDVNERLAAFLAEESLVPTGCRSLGITGVEAMARVDTATLVDLCVRAFEAAPDSDGILLSCGGLLTLDAIPEVERRLGVPVVSSSPAGFWDAVRLAGGGAKARPGYGRLFDES
notes: AMDase, construct details only in Supporting Information
Km [1]: 4.3 ± 0.5 mM | kcat [1]: 166 ± 10.6 s⁻¹ | kcat/Km [1]: 38600 ± 200 M⁻¹ s⁻¹ | Km [2]: 8.2 ± 1.6 mM | kcat [2]: 278 ± 33.9 s⁻¹ | kcat/Km [2]: 33900 ± 320 M⁻¹ s⁻¹ | Km [3]: 8.6 ± 2.1 mM | kcat [3]: 61.9 ± 6 s⁻¹ | kcat/Km [3]: 6400 ± 400 M⁻¹ s⁻¹ | Km [4]: 9.8 ± 2.2 mM | kcat [4]: 37.1 ± 8.8 s⁻¹ | kcat/Km [4]: 3800 ± 500 M⁻¹ s⁻¹ | Km [5]: 10.1 ± 4.5 mM | Km [6]: 3.1 ± 0.17 mM | kcat [6]: 148 ± 4.6 s⁻¹ | kcat/Km [6]: 48300 ± 170 M⁻¹ s⁻¹ | Km [7]: 6.4 ± 0.6 mM | kcat [7]: 225 ± 36.3 s⁻¹ | kcat/Km [7]: 35300 ± 250 M⁻¹ s⁻¹
